In patent US20260347491 (published 2026):
Read-outs that look alike come from different tables or passages of the source.

T1: human CD32b (FcgRIIb) (human, UniProt P31994)
T1 chain: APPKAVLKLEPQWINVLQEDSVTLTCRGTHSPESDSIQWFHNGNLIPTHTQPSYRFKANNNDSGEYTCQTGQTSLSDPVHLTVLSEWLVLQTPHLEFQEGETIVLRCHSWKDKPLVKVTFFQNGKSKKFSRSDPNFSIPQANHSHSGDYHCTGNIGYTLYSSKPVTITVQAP


Assays:
human CD32b (FcgRIIb) = target: T1, human CD32b (FcgRIIb); test: FACS, CHOS-hCD32b cells
human HER2 [1] = target: T2, human HER2 (human, UniProt P04626); test: FACS
human HER2 [2] = target: T2, human HER2; test: FACS; remark: listed apart in the source
human 4-1BB (CD137) = human 4-1BB (CD137) (human, UniProt Q07011); test: FACS
human 4-1BB (CD137), sequence (Q07011 24-186): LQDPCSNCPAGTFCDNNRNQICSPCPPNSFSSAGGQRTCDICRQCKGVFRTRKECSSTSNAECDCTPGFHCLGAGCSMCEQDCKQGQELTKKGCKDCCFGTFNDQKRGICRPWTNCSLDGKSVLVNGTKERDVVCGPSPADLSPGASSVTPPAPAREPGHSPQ

EC50 (human CD32b (FcgRIIb)) [nM]	EC50 (human HER2 [1]) [nM]	EC50 (human HER2 [2]) [nM]	binding result (human 4-1BB (CD137))	Binder
	1.81	2.88		HER2xHER2x4-1BB-2 (both HER2 arms) (antibody) chain 1: not shown chain 2: not shown chain 3: EVQLVESGGGLVQPGGSLRLSCAASGFTFTDYTMDWVRQAPGKGLEWVADVNPNSGGSIYNQRFKGRFTLSVDRSKNTLYLQMNSLRAEDTAVYYCARNLGPSFYFDYWGQGTLVTVSS chain 4: DIQMTQSPSSLSASVGDRVTITCKASQDVSIGVAWYQQKPGKAPKLLIYSASYRYTGVPSRFSGSGSGTDFTLTISSLQPEDFATYYCQQYYIYPYTFGQGTKVEIK
	1.82	2.65		HER2xHER2x4-1BB-1 (both HER2 arms) (antibody) chain 1: not shown chain 2: DIQMTQSPSSLSASVGDRVTITCRASQSVQGAVAWYQQKPGKAPKLLIYSASFLYSGVPSRFSGSRSGTDFTLTISSLQPEDFATYYCQQHSTTPPTFGQGTKVEIK chain 3: EVQLVESGGGLVQPGGSLRLSCAASGFTFTDYTMDWVRQAPGKGLEWVADVNPNSGGSIYNQRFKGRFTLSVDRSKNTLYLQMNSLRAEDTAVYYCARNLGPSFYFDYWGQGTLVTVSS chain 4: DIQMTQSPSSLSASVGDRVTITCKASQDVSIGVAWYQQKPGKAPKLLIYSASYRYTGVPSRFSGSGSGTDFTLTISSLQPEDFATYYCQQYYIYPYTFGQGTKVEIK

Further lines, the binder ahead of its results:

Binder	EC50 (human CD32b (FcgRIIb)) [nM]	EC50 (human HER2 [1]) [nM]	EC50 (human HER2 [2]) [nM]	binding result (human 4-1BB (CD137))
HER2xHER2x4-1BB-1 (full) (antibody) chain 1: not shown chain 2: DIQMTQSPSSLSASVGDRVTITCRASQSVQGAVAWYQQKPGKAPKLLIYSASFLYSGVPSRFSGSRSGTDFTLTISSLQPEDFATYYCQQHSTTPPTFGQGTKVEIKRTVAAPSVFIFPPSDEQLKSGRASVVCLLNNFYPREAKVQWKVDNALQSGNSQESVTEQDSKDSTYSLSSRLQLSKADYEKHKVYACEVTHQGLSSPVTKSFNRGEC chain 3: not shown chain 4: DIQMTQSPSSLSASVGDRVTITCKASQDVSIGVAWYQQKPGKAPKLLIYSASYRYTGVPSRFSGSGSGTDFTLTISSLQPEDFATYYCQQYYIYPYTFGQGTKVEIKRTVAAPSVFIFPPSDEELKSGTASVQCLLNNFYPREAKVQWKVDNALQSGNSQESVTEQDSKDSTYSLSSELTLSKADYEKHKVYACEVTHQGLSSPVTKSFNRGEC	1.06			
Pertuzumab (antibody, V domains shown) VH: EVQLVESGGGLVQPGGSLRLSCAASGFTFTDYTMDWVRQAPGKGLEWVADVNPNSGGSIYNQRFKGRFTLSVDRSKNTLYLQMNSLRAEDTAVYYCARNLGPSFYFDYWGQGTLVTVSS VL: DIQMTQSPSSLSASVGDRVTITCKASQDVSIGVAWYQQKPGKAPKLLIYSASYRYTGVPSRFSGSGSGTDFTLTISSLQPEDFATYYCQQYYIYPYTFGQGTKVEIK				no binding
